Reference: patent publication US20260117244A1, “INHIBITORY RNA FOR THE CONTROL OF PHYTOPATHOGENS” (priority 2021, published 2026)

B1: OEC70 dsRNA: long dsRNA against G. orontii effector candidate 70 (target SEQ ID NO:123) (nucleic acid)
chain: ACAGAGACCGTAACCGTAACTGTCTGTGCACCATCTGCCTCTGCCCATCCCTCTTCGGGATATGCTATGCCATCAGTCTATCCGGCACCAGTTTCATCAGACCCTGCCAGTCCTGCATACCCGCCAAGCGCTTCTGGTGGCTACTCCTCTCCACCACCAAACCAAACTCCAGCACCATTCACCGGCGCCGCTTCAGCAAACGCAGCTCAGGTAGTATCAGCCATTATTGCTGC
modifications: misc_feature 1..233: note = Inhibitory double stranded RNA; listed as RNA
B2: AATF dsRNA: long dsRNA against G. orontii apoptosis antagonizing transcription factor (target SEQ ID NO:92) (nucleic acid)
chain: TCCGAAGGAGAGTATTCATCAGAAACTCAGGTTTCAGAATACTCGGACGATCAACTCAACTCTGATAATCTTGAAGATGAAGAATCTGATAGTGATGATGATGATGATATTGGAGATGAAAGAACCGAACGATCCGAAATTCAGAAAATCATGAAAGAAGATCAAAAGACCGTGGTATCAACAATATCTCAAGCAGTAAAAGCAGATGTTGAAAAGGGTAAAGCTGTCAAGGCTCAGCGAATGAGATTCGATTGTTTGTTAAATGTACGAATGGCAATGCAAAA
modifications: misc_feature 1..284: note = Inhibitory double stranded RNA; listed as RNA
B3: 2 (nucleic acid, listed as Golovinomyces orontii)
chain: ATGTCTAGGCATACATCTGCATTTTTCGTTCTCTTTCCTACATTATTCGTCATATTAGCCAGTGCCTATCAATCACACTATGGCTCATCCTATCATCAGCAAGAGTCTCTTCAATCTGACGCACAATGGAATAGCAATATCTCTGATACTTTATTCCTGGAGCTAGAGGAACTAGCTCGTATCGTTGATATTGCTTACTGTGTTGGTACAACAGGAATCTCTAGCCCTTTTGTATGCGCCTCGCATTGCAGCGATTTTCCAAGCTTTGAACTCGTGGATACATTCCATTCAGGATACTTATTGGGCAATAGTTGCGGTTACATTGCACTTGATCATGCGTCGGACAATAACAGAGGACGAATACTGGTAGTTTTCAGGGGTACATACAGTATCGACGACACTATAATAGACCTGACTATGGTACCACAAAAGTACGCGCCATACCCGTCTCATCACGAAAATAATTTCAAAAGATCAGAATCAAGCCCACTTTTTAATTTAATACCTAGTAAAGAAATTCGGTCCCTCTTACGCTCATTCTCACGTATATTTCATCGTCGAAAAGGAAGTAGGCCAGAAAGACATATGCACTCTAACATTGAATGTACGAACTGCACTGTTCATATGGGATTTTGGACAAGCTACCAACAAATACGTCCTCATTTATTCTCCAAGATTAGTAGCCTTCGAAAAAAATTCCCTAACTATCGATTGGATTTAGTCGGACACTCACTAGGTGGCGCTGTTGCTGCTCTTGCTGGACTTGATCTTAAATTACTTGGATACGAACCTATCGTAACAACCTTTGGTGAGCCACGCGTTGGAAATACTGGATTCAGAGATTTCATGGATGCCACATTTAACCTACGCTCCCAGAACTCAGGGGGTCATTTAGACATGCCAAGCTGCAAAGATCACTATCGTAGAGTGACTCATACAAGTGATCCTATGCCATTACTACCGCCGCAAGATTTTGGCTATCGCCCACATGCTGGCGAGGTATTCATCTCAAAACGAGATCTTCCAGTGGCAATACAAGACGTTCGTCACTGTTTTGGTGACGATGATGTGAACTGTATCGAGGAAAGAGGAAACAATAGAGTTTGGACTGATTTATCTGAGACGTCGAAAATAAGAGCCGGCACCAAAGACTCCTTAGATGCCAGGGGTGGCGAATTGAAAAAACGAGATAGGGTACGATTACATCCTCCCCATCTTTGGCGACCCTTTCTAGCGCATCGTGACTATTTTTGGCGCCTAGGATTATGCGTTCCAGGAGATGATCCAACTGGTCAAGTAAGAGACGAGGTTTAG
modifications: listed as DNA
B4: OEC14 dsRNA: long dsRNA against G. orontii effector candidate 14 (target SEQ ID NO:124) (nucleic acid)
chain: CACAACAGCTCTCCTAATCTCTCCCTCCCTAGGAGTTAATTCAGCTCAGAACGGCGAAACTCCCGATGACGATTCATTAGGTTCTACGAAACACATGAACTTTGGCTCTGGTCTCTCTGAATTCAATGCTCATGAAGATATGTATGTTCCTGCCATGGATCTGAATGGGTTTAGAATAAAGCGACGACATTTTCAAAATGAAGGCTATTACTGCAGCAAATCG
modifications: misc_feature 1..223: note = Inhibitory double stranded RNA; listed as RNA
B5: 15 (nucleic acid, listed as Golovinomyces orontii)
chain: CCTTTTGATTACTCCGCCCAACTTTTTTTTTTTAGGTTTTCAGTACTTCACCCTAGGAAGCTCCTCAATCATCATTTCTGAAAAGATGTCATCGTCTCTAGACCAACTTAAATCCACTGGAACTACTATTGTCTGTGATTCAGGTGATTTTGAATCAATTGGCAAATATAAACCTC
modifications: listed as DNA
B6: APC1 dsRNA: dsRNA against G. orontii APC1, Anaphase promoting complex/20S cyclosome subunit (target SEQ ID NO:163) (nucleic acid)
chain: AGATTGGTATTATCTCGCCTGAATATGCAACGTTTAGAAGTTCTATTCAGACAAAGCCGACTCTTAATCAACGCAAGGTTTTTACGGTGGCGCCGCCCTTGTGCGCTTCTGACGATGTACAGGAGAATTCTTGTATTATTTGTATCCTTGATCCTAATGAAAAGAAACTTATTACTGTAAATTTAAATATCAAGGCCTCGGAGCAAAAAAGTGAACTCGCAAAATCGGAAAATCTAAAATCTAAGAAAGAGGCAACTACAGTGTCACTT
modifications: misc_feature 1..269: note = Inhibitory double stranded RNA; listed as RNA
B7: 32 (nucleic acid, listed as Golovinomyces orontii)
chain: GGTTCATCACCTCTAAATTTGTGAAGAGGTTTCTAAAAGATTCATCTCATCTCATAGCCAGAATTTAGACGCTGTATAAACGATGTTTGGGTCAGGATGTCCGATCAGAATGTATCCAAGAGTCAAGCGTAAATTCTGCAGGCTAGATGTATTTCGTCCCATCATGAATCGTAGATACAAAAGCGGACCTTTTGGCTATACGATGGCACAGGCGCTCGTTTACATGAAGCATGGTGAACCAGACGATGTACTCTCTCTTCATCGTCACTCCATTACACCTACACTTCCACCAGATTCTATTTTCTTACGGACACTTGCAAGCCCAATCAATCCAGCCGATATCAACCAAATTCAAGGTGTCTATCCGTTAAAACCAGAATTCTCGCCTCTACTTGGTACACCGCTTCCGAGCGCTGTAGGTGGGAATGAAGGCTGTTTTGAAGTTGTTTCACTCGGCTCTTCAGTGACTGATGTTAAGAAAGGCGACTGGGTGGTGGCAAATACCCCTGCACTCGGCACCTGGCGTACGCATTTGGTTGTACAGAAGTCTGATATTTTGCCCGTAGAGAAAAAAGGGTTAACCGCAACACAAGTTTGTACTGCATCGATCAATCCGCGAACAGCTTACTGCATGTTGAATAACATTGAGAAACTGCAGAAAGGTGATTGGTGGATTCAAAATGGAGCCAACAGTAGCGTGGGTCGTGCCGCAATTCAATTGGGAAAGTTATGGGGCTTTAAATCAATAAATGTCATTAGAGATCGACCAGACGTGGTATCTACCGAGTCCTTGCGGGCTGAATTGTTAGAATTAGGTGCTACACATGTTGTCACAGAAACAGAGCTGCTTGACAGAGGCTTTCGAGAGCTCGTGACGAAATGGACTAATGATAATAATAAGGGAATTAGATTAGGCTTGAACTGTGTTGGGGGTAAGTCTACAACGGCATTGGTAAAATTACTCGGGAAAAGAGGTCATTTAATCACATATGGTGGCATGTCTCGACAACCTCTACAACTTCCAACCAGCCGCCTCATATTTGATGATCTACGTTTTAGTGGCTTCTGGATTAGTCGCTGGTCCGTCGATAATCCTCGGGAAAGTCAGCACATGCTCAACAAAGTTCTGGACCTCATTCGTACAGGTTCTTTGAAGGAAACTCCTCATCACGAAATACTCTGGAATTGGGATACTAAGATTCAAGTACTCAATGAAGGAATTAAAGGTGCACTTCAGGGTTATCGAAACGCCAAAAATATTCTTGTTTACGGAGATACATAAATTTTGAGT
modifications: listed as DNA
B8: OEC60/OEC61 dsRNA: long dsRNA against G. orontii effector candidate 60/61 (target SEQ ID NO:122) (nucleic acid)
chain: CACAAAATGGGCCAAATGGGAAATTGTCGAGCTAATTGTGATTGGAAACGAAGCCCTATTTAATGGCCATACTTCTCCAGATGAGCTCGCAAGATTTATTAGCTCAACCAGAAATACACTACGATCCTCTGGTTACAATGGACCTTGCACAACAGCTGAGCCTCTCAATATCTGGCAGCAAAGCTCGGATGTATTGTGTGGT
modifications: misc_feature 1..202: note = Inhibitory double stranded RNA; listed as RNA

Test system: G. orontii MGH1
Test: Spray-induced gene silencing (SIGS), G. orontii spore production on A. thaliana (whole plant and detached leaf assays)
Assay type: in vivo, Golovinomyces orontii
Settings: for effect on spore production: long dsRNA; for effect on spore production / average reduction in spore production: vs buffer control
[1] = topical dsRNA against G. orontii target (Gor Seq ID), n>=3

| Molecule | effect on spore production (A. thaliana whole plant assay) | G. orontii Spore Production on Arabidopsis, Detached Leaf Assay, % reduction [1] [%] | also measured |
| --- | --- | --- | --- |
| B1 | significantly reduced spore production | – | – |
| B2 | – | – | average reduction in spore production (A. thaliana detached leaf assay): 32%; average reduction in spore production (A. thaliana whole plant assay): 21% |
| B3 | – | 67 | G. orontii Spore Production on Arabidopsis, Whole Plant Assay, % reduction (topical dsRNA against G. orontii target (Gor Seq ID), whole plant assay, n>=3): 41% |
| B4 | significantly reduced spore production | – | – |
| B5 | – | 38 | – |
| B6 | – | – | reduction in spore production (assay format not stated): 48% |
| B7 | – | 50 | – |
| B8 | significantly reduced spore production | – | – |
